Results: publication PMC4866751, “Bacillus licheniformis Contains Two More PerR-Like Proteins in Addition to PerR, Fur, and Zur Orthologues” (PLoS ONE, 2016)

Columns and labels:
[1] = target: FurBL (BL05249) (Bacillus licheniformis ATCC14580); assay: SEC; Superdex 200 HiLoad 16/60 gel filtration, Chelex-100-treated buffer A (20 mM Tris-HCl, pH 8.0, 0.1 M NaCl, 5% glycerol); oligomeric state judged by elution profile in the last purification step
[2] = target: PerRBL (BL00075) (Bacillus licheniformis ATCC14580); assay: as above
[3] = target: ZurBL (BL03703) (Bacillus licheniformis ATCC14580); assay: as above
[4] = test system: PerR2 (BL00690) (Bacillus licheniformis ATCC 14580); assay: EMSA; conditions: EMSA: 20 mM Tris-HCl pH 8.0, 50 mM KCl, 5% glycerol, 50 ug/ml BSA, 100 uM MnCl2; 6% PAGE in 45 mM Tris-borate with 100 uM MnCl2; temperature not stated
[5] = target: the molecule itself; assay: SEC; Superdex 200 HiLoad 16/60 gel filtration, Chelex-100-treated buffer A (20 mM Tris-HCl, pH 8.0, 0.1 M NaCl, 5% glycerol); oligomeric state judged by elution profile in the last purification step

Molecule: FurBL (BL05249) (natural protein)
- stoichiometry N [1]: 2

Molecule: PerRBL (BL00075) (natural protein)
- stoichiometry N [2]: 2

Molecule: ZurBL (BL03703) (natural protein)
- stoichiometry N [3]: 2

Molecule: mrgA promoter fragment with PerR box (273 bp)
- Kd [4]: 70 nM

B1: PerR2 (BL00690) (natural protein, Bacillus licheniformis ATCC14580, UniProt Q62UQ7 1-154, looked up)
chain: MENETNVKQEAMAQLKRKGIRMTPQRLAIYHYFLANRNHPTIAEIQQSLREIYPAVSTATIYNTIRYFKQEGLIKEMGFTDPLRFDLALEEHDHVICEVCGKIVDFHCPQLEKVKDIAARLTGFKVTHHRLELYGICNDCQAKRKYAAKEKGVR
notes: PerR-like protein BL00690 of Bacillus licheniformis ATCC14580; ORF cloned into the NcoI and BamHI sites of pET-16b (pJL202); Contains structural Zn2+ (~0.8 per monomer); source: E. coli BL21 (DE3) pLysS, purified (heparin-Sepharose, SP-Sepharose, Superdex 200)
- stoichiometry N [5]: 2
